Results as given in the DeepSol protein solubility set.

Assay: soluble on expression in E. coli; label from the status in PepcDB or PDB records

Sequence | soluble on expression in E. coli
QEDVTVKSVTLITKVFPEGEKVCAVVIEYPVEIDGQKLSPDQFSVKVKTGDTYSSRTITKVYANNSGGLSFSIFNNRGKYVVLELSTEDLHSNTIVFGPNFLNTRMKLDYIVSQLVPIFDVDGNEVEPFTSKQTDEKHLIIDDFLAFTFKDPETGVEIPYRLFVPKDVNPDRKYPLVVFLHGAGERGTDNYLQVAGNRGAVVWAQPRYQVVHPCFVLAPQCPPNSSWSTLFTDRENPFNPEKPLLAVIKIIRKLLDEYNIDENRIYITGLSMGGYGTWTAIMEFPELFAAAIPICGGGDVSKVERIKDIPIWVFHAEDDPVVPVENSRVLVKKLAEIGGKVRYTEYEKGFMEKHGWDPHGSWIPTYENQEAIEWLFEQSR | soluble
MDWTRRLRLQHLQLLVSLMETGNLSGTARAAHTTQPGLSKWLKELEEDVGAPLFERHARGLRPTPYGMTLFNHAQRVLTEMERARQNLEAMRSGSGSRVLLGTSPASAPSLVPRALRAFLGRYPGAQVELLEGTMNGLLERLEKRQLDVVVGRLDNYAPRASLRCEVLYSEAIVVMARPGHPLAQAAALDWEDVRRYDWIVWPPGSPIRSKLDMALTQGGRQPPAYRLESSSMLANIELLRGSDMLSIGSARVVEHLAGLGLVARLALEIPGEGAVGMCWRDEPHRDRASEDLLACLREGAAAE | not soluble
MLPSKYEDNALQIKEKSTERTAPFFVLEVTARSAADILGIHPNSAALFYRKIRTVINHHLALAADEVFEGPVEPDESDFGGRRKGRRGRGAAGKVVVFGILKRNGRVYTVVVDNAKSETLLPVIKKKIMPDSIVYTDSLSSYDKLDVSGFIHYRINHSKECADRQNHINGIENFWNQAKRVLRKYNGIDRKSFPLFLKECEFRFNFGTPSQQLKILRDWCGILEHHHHHH | not soluble
GPGSMPNPLVRLGKELKEATEHPDPDIHLELYDPTKGSDGSRSSQGAALQPSQQQPGLYTWLAILKGPPDTPFAGGSYRLVLSIPHEYPLVPPKAAFITKVFHPNVEFNTGNVCLDILKKRWSPVWTLSSVCRAILNLLAEPESDSPFNCDAGNLLRAGDMEGYASLVRYYAITDAGAPPFADNEE | not soluble
MGSDKIHHHHHHMNYQQLFRNRLAVLATMHQKEKVIAPLLEQELGIKVIVPPDFNTDIFGTFTREVKRPGTQIAAARLKAEKVLELTGENLAIASEGSFAPHPLVPYIYSNREIIILLDKINDIEIIGEEFSTYTNFNHQAVESLDEAYTFAKKVGFPEHGLVVWFENSEKKCHEIIKGITQETALIEAINFGLEKSPNSKINLETDMRAIYNPTRMKNIEKATHNLLQKISSCCPQCHTPGFETTERIKGLPCELCHTPTTLTLRAIYQCKKCGFRQDKLFPNGIEFADPSQCVYCNP | not soluble
MTGSDISHILKEGELEKRSDNLLQFWKRKTCVLTTDSLNIYTDQQKKNKSKELKLQSIKKVDCVEHTGKFVYFTIVTTDNKEIDFRCSDEKNCWNAVIAIALVNFQNRKAIQGFKTQKESENTSLGQQERCMARAP | not soluble
MGSDKIHHHHHHMNIDEAKQLANYFSDGSPGYILEFNNLEWDLYTKKIVGFGIQERFGGSKGNSFKEFLVSEDISDHLKFKLIYSLNETMKQIASIRQFENPSSYKSPKMNPLVTLLIEEAYHKKDSARLLNGTKFSKEVNLEYIQQLPTRISKDIQNKDFDSVLTKSNTMIDEVLKYIIENTKGKSIDNNTVRSKDLRNQAFERLNIKIDKDMDKRIKALVGALNTLSDKILEMRNSQGDAHAQGSRRIVINEEEAILTANSAMILCEYLFRKYEKRKRFSDAKES | not soluble
MSLTATAPCPYACGLCSLHENHSALVNIVVTNRCDLSCFYCFFYAERAGYIYEPSIEQIKFMVRQVARQRQGSDVHVNIQITGGEPTVREDLVDVVKAIREAGAHYIQLNTNGINVARRYLDNPPGAIDYVRSLREAGVSVVYMSFDGVTPKVNWKNHYEAPFALKAFQEGGLDNVVLVPTVIRTINDHEVGDIIRFAGKHIDVVRGVNFQPVSLTGMMRKHERERMRITIPDVIKRIEEQTDGQIPMDAWYPVPVVAKFVKAIDALTGKLYDTLSNHPACGSATYVFALERDRYGVPRRFLPITEVIDVEGFIEFLDEERIKLEHNSGRLSRLKVAAEIVWRARRFVDFDREGHHHHHH | not soluble
MGSDKIHHHHHHMNDEVSKNISLSDFEPYFKEDYFREDYFYFDNAVNSPETSDRQAGVIWNLLSLGQGSSVLELGCGYGRITNRLAKKGAHVVGLDISPILLKEAETDAAERGVKVEYVLGDMRSLPWRDRFDAAFLWYTTFGYFDDADNERVLREAASSLRKGGRLLIDHPNRIDFLRHKSPVCYVTQRNNDVRIDMFSNDVLSDRSNLERLIVRDGCVRRTHLSFRQYGVSEYVRMLRSAGFETVEAYGQEGEAFTSDSSRLVVVACK | not soluble
MSTAPLENAPTPGGARFTKIYDEDGEHIITRDEHKGLEWTAHALDSRHAAGFGNLLRRSGAKKVCRELTLGGHTDWRVPEIEEAMSIGLVDTCWPANETWFWTCTPCEQEPENKAWAFEFGTGNKRIEDRRIWLHVRAVRGQMRTDATATPKAGESLEHHHHHH | soluble
MSLSEENVKLAEELIRKGYNEKKIRSLLKLPDEEFKLALEVARARIKAKDKFSRSDLWFDLEGLRYATHEVVADYRGRRLKGQGVKSIADVSCGVGIQLIFFAKHGIRSVGIDIDPIKIEFAKRNAEKYGVEVEWVVGDALSPEIIEKVDAEVIFSDPARPPEVPERNLEDLLPSPLKIYEAYKHKTDSFIFDLPPQIRREKVPWKGEFEYIDLFGHVNRLTFYTEPLAKAERSAVILPQGARLESNPDLENIVEETMEPERYIYEIPQSIDYADLINELFHKVNGELKLLLREKRRILATSNDEVKSEYFKRSYIVVKVMPFHPVRINDFLRREGYGRATLRMSVDEKEYWRIRKKIESGLSGDKRAFVFKVRDLAVIAEEIPQAEGHHHHHH | soluble
MAKKVRSVHECSECGYSSPKWLGRCPECGSWGSMEERTVGESGGAARAAVSGAAPAGLTPTSPAVPIGKIVASQATSISTGIGELDRVLGNGIVPGSVVLMAGEPGVGKSTLLLEVASRWASMKEGDGTRTALYVTAEESAGQVRLRAERTAAVKDTLYLAAESNLDVVFGHVNQVKPSLLIVDSVQTMHAAGVEGVAGGVAQSRAVTAALTTLAKTSGIPILLVGHVTKDGNVAGPRVLEHLVDVVLNFEGDRHSSLRMLRGIKNRFGATDEVGCFEQQSDGIKEVPDPSGLFLSHRGSTPDGTAVTVAMDGVRPLLAEVQSLLVDAPSKNPRRVVTGLDANRVPMVLAVLSARAGRQTQGKDAYVATVGGMKVGEPATDLAVALATASALAKKPLPDKTVVLGEVGLAGEIRRVPNVDRRLAEAERLGYEKAVIPGGSGIKQTSLRVIEASTLAEALAAVSLLEHHHHHH | not soluble
MGSDKIHHHHHHMNELRNDLLRYLTISATDEEWGIVVTTVGYQFIPPGCAYPLSRHPEKYNFKPQTGRILNEYQLVYITKGSGYFSSQSCKSQKINAGTMILLFPGEWHSYYPDRETGWDEYWVGFRGIHIDKRVEKKFFTKEEPLHRIGLSATIVGLYEDILKFASEEKSGYQQMISSIVLHILGSVYYKEKNNSFTNTYVVDKINEARILMKENIEDPLSPEEIAARLGLGYSWFRRMFKEYTGVSPAQYQLQQKLLRAKELLTSTPLTISEIAYSLHFENAGQFSTFFKKKEGVTPSEFRDRTH | not soluble
MESSTDGQVVPQEVLNLPLEKYHEEADDYLDHLLDSLEELSEAHPDCIPDVELSHGVMTLEIPAFGTYVINKQPPNKQIWLASPLSGPNRFDLLNGEWVSLRNGTKLTDILTEEVEKAISKSQ | soluble
MGHHHHHHSHMEVVDPQQLGMFTEGELMSVGMDTFIHRIDSTEVIYQPRRKRAKLIGKYLMGDLLGEGSYGKVKEVLDSETLCRRAVKILKKKKLRRIPNGEANVKKEIQLLRRLRHKNVIQLVDVLYNEEKQKMYMVMEYCVCGMQEMLDSVPEKRFPVCQAHGYFCQLIDGLEYLHSQGIVHKDIKPG | not soluble
MSLNKIDMPVLNVKMVPVEKIKSNSYNPNHVAGPEMELLELSILKDGYTQPIVCYCDDKKDEYIIIDGFHRYLIGKSKLDLKELPVVVIDKPLEQRMSSTIRHNRARGKHEIDKMSELVLLLVNEGWDDHKIGKELGMEKEEVLRLKQVTGLKSAFLNHEFSESWDEFVKKNYPKQKDEEGGSHHHHHH | soluble
MGSDKIHHHHHHMSAVIGYRHGKAGERGIILCARQFQNSLNESSLEEIKRAIESYPFLQDYYEIGDKYIKSKDGRIVYVFAGLDRNIASIKSMGRVFLCWVDEAEPVTETAWQTLIPTLREEGNDWNAELWVTWNPCRENAPVEKRFRNVNNPHIKGAEITWRDNPQFPEKLNRDRKADLEQRPEHYNHIWEGEYLQTVEGAYYQKALLEASREGRITTVPRDPLMQIRIFWDIGGTGAKADATALWVAQFVGREIRVLDYYEAQGQPLSEHVGWVFQRGYDKALMVLPHDGATKDRVYNVSFESALQQAGFQTKVIPNQGVGAVKMRIEAVRRLFPAIWFNRETTHAGRKALAWYHEKRDEQRNIGLGAEHDWASHGADAFGLMCVAYEQPNMRPKKNTYRSSHHSQTSWMAF | not soluble
SLSRPWQGKGCATLWASVDHRFQINLRGVIDLLSHHLYSSPDVYIRELLQNATDAIRARQHLEPGHEGSIRIELIEKQDGGPPTLLFSDDGIGLTEEEIHRFLATIGESSKREVLAERRGDFIGQFGIGLLSCFMVCDEVLVVTRSAQGGSPTMEWRGRHDGIYTVRPSGHPLERPGTQVFLVARPDAASLFTPQRVRELALHYGGLLPFPIHLTAGGYSGRINTEG | soluble
MTTLYLASGSPRRQELLTQLGFSFEQVVPGIEEQRRAQESAQQYVVRLAREKAQAGVALVPRDLPVLGADTIVVLNGEVLEKPRDAAHAAEMLRLLSGNTHQVMTAVALADSQQTLDCLVVTEVTFRTLSAQDITGYVASGEPLDKAGAYGIQGRGGCFVRKINGSYHAVVGLPLVETYELLSHFNALRDKRDKHDG | not soluble
MGPKRRQLTFREKSRIIQEVEENPDLRKGEIARRFNIPPSTLSTILKNKRAILASERKYGVASTCRKTNKLSPYDKLEGLLIAWFQQIRAAGLPVKGIILKEKALRIAEELGMDDFTASNGWLDRFRRRRS | soluble
MGSDKIHHHHHHMINLFLYCRAGYEKDCAAEIQQRAAELNVGGFVKTNRNDGYVIFQCFQVGDADLLAEQIELDSLIFTRQMFAANELLKDLPEGDRVTPIVDALAKVHRAGELRVETPDTNEAKELSTFCRKLTVPLRQALKRSGALLEKENPKRPIIHVCFVGPGTAYVGYSLSHNSSPYFMGIPRLKMASDAPSRSTLKLDEAFIHFIPKSEQEQRLRSGMNSVDLGACPGGWTYQLVRRGMFVAAVDNGPMAQNLMDTGQVRHYQADGFRFEPPKKNIYWLVCDMVEKPSRVAELMEAWAINGWFKEAIFNLKLPMKSRYKEVSTILATMQEVLRENGIDDFHLACKHLYHDRDEVTVHLWLKPSVGFNFG | not soluble
